Where a chain is given by its changes, count along the chain named. Where “and” joins values, the source holds several entries; their conditions need not be identical. Equal values may be shown once.
How the values were obtained:
[1] = target: T1, human B7-H4 extracellular domain (human, UniProt Q7Z7D3 29-258); assay: competition ELISA on coated huB7-H4 ECD; competitor biotinylated 0052 (by series, not given)
T1 construct: For SPR it says only human B7-H4 ECD; also called Hu B7-H4 ECD; huB7-H4 ECD
T1 sequence: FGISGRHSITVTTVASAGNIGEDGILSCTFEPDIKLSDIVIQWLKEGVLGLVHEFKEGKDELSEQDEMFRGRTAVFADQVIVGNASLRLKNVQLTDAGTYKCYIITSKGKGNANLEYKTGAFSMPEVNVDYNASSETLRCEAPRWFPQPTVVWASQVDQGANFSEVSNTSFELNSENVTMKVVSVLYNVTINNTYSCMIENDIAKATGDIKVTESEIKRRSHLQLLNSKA

[2] = target: T2, human B7-H4 extracellular domain (human, UniProt Q7Z7D3 29-258); assay: SPR 37 C; IgG1 on anti-hFc chip, ECD analyte;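 note: antibodies captured, then B7-H4 ECD injected at five 3-fold dilutions from 300 nM, 65 s association and 600 s dissociation, fitted to a 1:1 Langmuir model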
T2 construct: Soluble ECD used as SPR analyte; also called huB7-H4 ECD; huB7-H4
T2 sequence: T1 sequence

[3] = target: T1, human B7-H4 extracellular domain; assay: competition ELISA on coated huB7-H4 ECD; competitor biotinylated 0058 (by series, not given)

B1: B7-H4 antibody 0540 (antibody, human IgG1, kappa, V domains shown)
VH: EVQLVESGGGLVQPGGSLRLSCAVSGGSFSGYYWNWIRQPPGKGLEWIGEIDHQGSTKYNPSLKSRVTISVDTAKNSLYLQMNSLRAEDTAVYYCARELYNWNVDHWGQGTLVTVSS
VL: DIQMTQSPSSLSASVGDRVTITCRASQGIRNDLGWYQQKPGKAPKRLIYAASSLQSGVPSRFSGSGSGTDFTLTISSLQPEDFATYYCLQHNAYPRTFGGGTKVEIKR
- IC50 [1]: 30.1 nM

B2: B7-H4 antibody 0283 (antibody, human IgG1, kappa, V domains shown)
VH: QVQLQQWGAGLLKPSETLPLTCAVYGGSFSGYYWNWIRQPPGKGLEWIGEINHSGSATYNPSLKSRVTISVDTSKNHFSLKLSSVTAADTAVYFCARGLYNWNVDHWGQGTLVTVSS
VL: B1 VL with A93S
- IC50 [1]: 7.2 nM and 12.9 nM

B3: B7-H4 antibody 0270 (antibody, human IgG1, kappa, V domains shown)
VH: B2 VH with P19S, A57T, T58K, V71G, H77Q, S83N, F94Y, A96V, H106S
VL: B1 VL with A50V, A93S, R96Y, G100Q, V104L
- IC50 [1]: 9.07 nM

B4: B7-H4 antibody 0279 (antibody, human IgG1, kappa, V domains shown)
VH: B1 VH with I37V, P40A, D52N, Q54S, T57A, K58T, V67F, L78F, E98G
VL: B1 VL with D70E, A93S
- IC50 [1]: 5.94 nM and 14.9 nM

B5: B7-H4 antibody 1080 (antibody, human IgG1, kappa, V domains shown)
VH: B1 VH with D52N, Q54S, T57A, K58T, E98G
VL: B1 VL
notes: IgG1 mAb format
- Kd [2]: 13.8 nM
- koff [2]: 0.0054 s⁻¹
- kon [2]: 392000 M⁻¹ s⁻¹

B6: B7-H4 antibody 0385 (antibody, human IgG1, kappa, V domains shown)
VH: B2 VH
VL: B1 VL with N92Q, A93S
- IC50 [1]: 7.87 nM

B7: B7-H4 antibody 0390 (antibody, human IgG1, kappa, V domains shown)
VH: B2 VH
VL: B1 VL with N92Q, A93S, R96Y, G100Q, V104L
- IC50 [1]: 15.2 nM

B8: B7-H4 antibody 0542 (antibody, human IgG1, kappa, V domains shown)
VH: B1 VH with V24A
VL: B1 VL with N92S, A93S
- IC50 [1]: 33.8 nM

B9: B7-H4 antibody 1083 (antibody, human IgG1, kappa, V domains shown)
VH: B1 VH with V24A, D52N, Q54S, T57A, K58T, L78F, E98G
VL: B1 VL
notes: IgG1 mAb format
- Kd [2]: 22.6 nM
- koff [2]: 0.0086 s⁻¹
- kon [2]: 381000 M⁻¹ s⁻¹

B10: B7-H4 antibody 0386 (antibody, human IgG1, kappa, V domains shown)
VH: B2 VH
VL: B1 VL with N92A, A93S
- IC50 [1]: 9.2 nM

B11: B7-H4 antibody 0388 (antibody, human IgG1, kappa, V domains shown)
VH: B2 VH
VL: B1 VL with R96Y, G100Q, V104L
- IC50 [1]: 11.3 nM

B12: B7-H4 antibody 0277 (antibody, human IgG1, kappa, V domains shown)
VH: EVQLVESGGGLVQPGGSLRLSCAASGGSFSGYYWNWVRQAPGKGLEWVAEINHSGSATYNPSLKSRFTISRDNAKNSLYLQMNSLRAEDTAVYYCARGLYNWNVDHWGQGTLVTVSS
VL: B1 VL with D70E, A93S
- IC50 [1]: 19 nM

B13: B7-H4 antibody 1081 (antibody, human IgG1, kappa, V domains shown)
VH: B1 VH with L78F, E98G
VL: B1 VL
- IC50 [1]: 3.5 nM

B14: B7-H4 antibody 0391 (antibody, human IgG1, kappa, V domains shown)
VH: B2 VH
VL: B1 VL with N92A, A93S, R96Y, G100Q, V104L
- IC50 [1]: 13.6 nM

B15: B7-H4 antibody 0383 (antibody, human IgG1, kappa, V domains shown)
VH: B2 VH
VL: B1 VL
- IC50 [1]: 7.17 nM

B16: B7-H4 antibody 0267 (antibody, human IgG1, kappa, V domains shown)
VH: B12 VH with V48I, A49G, A57T, T58K, R71G, L78F, A96V, H106S
VL: B1 VL with A50V, D70E, A93S, R96Y, G100Q, V104L
- IC50 [1]: 9.42 nM

B17: B7-H4 antibody 0934 (antibody, human IgG1, kappa, V domains shown)
VH: B12 VH with A24V, V48I, A49G, F67V, R71V, N73T
VL: B1 VL with N92S, A93S
- IC50 [1]: 3.6 nM

B18: B7-H4 antibody 1083 (antibody, human IgG1, kappa, V domains shown)
VH: B1 VH with V24A, D52N, Q54S, T57A, K58T, L78F, E98G
VL: B1 VL
- IC50 [1]: 2.1 nM

B19: B7-H4 antibody 0384 (antibody, human IgG1, kappa, V domains shown)
VH: B2 VH
VL: B1 VL with N92S, A93S
- IC50 [1]: 6.91 nM

B20: B7-H4 antibody 0546 (antibody, human IgG1, kappa, V domains shown)
VH: B1 VH
VL: B1 VL with N92S, A93S
- IC50 [1]: 42.3 nM

B21: B7-H4 antibody 0544 (antibody, human IgG1, kappa, V domains shown)
VH: B1 VH with V24A, E98G
VL: B1 VL with N92S, A93S
- IC50 [1]: 35.5 nM

B22: B7-H4 antibody 1081 (antibody, human IgG1, kappa, V domains shown)
VH: B1 VH with L78F, E98G
VL: B1 VL
notes: IgG1 mAb format
- Kd [2]: 33.4 nM
- koff [2]: 0.00962 s⁻¹
- kon [2]: 288000 M⁻¹ s⁻¹

B23: B7-H4 antibody 0934 (antibody, human IgG1, kappa, V domains shown)
VH: B12 VH with A24V, V48I, A49G, F67V, R71V, N73T
VL: B1 VL with N92S, A93S
notes: IgG1 mAb format
- Kd [2]: 11.8 nM
- koff [2]: 0.00539 s⁻¹
- kon [2]: 454000 M⁻¹ s⁻¹

B24: B7-H4 antibody 1082 (antibody, human IgG1, kappa, V domains shown)
VH: B12 VH with V48I, A49G, F67V, R71V, N73T
VL: B1 VL
- IC50 [1]: 2 nM

B25: B7-H4 antibody 0911 (antibody, human IgG1, kappa, V domains shown)
VH: B1 VH with D52N, Q54S, T57A, K58T, E98G
VL: B1 VL with N92S, A93S
- IC50 [1]: 2.5 nM

B26: B7-H4 antibody 0119 (antibody, human IgG1, kappa, V domains shown)
VH: EVQLLESGGGLVQPGGSLRLSCAASGFTFSSYAMSWVRQAPGKGLEWVSAISGGGGSTYYADSVKGRFTISRDNSKNTLYLQMNSLRAEDTAVYYCARDIQWFGESTLFDYWGQGTLVTVSS
VL: DIQMTQSPSSLSASVGDRVTITCRASQSIRSWLAWYQQKPGKAPKLLIYKASSLEGGVPSRFSGSGSGTDFTLTISSLQPEDFATYYCQQYNSYSRTFGQGTKVEIKR
- IC50 [3]: 7.52 nM and 13.7 nM

B27: B7-H4 antibody 0572 (antibody, human IgG1, kappa, V domains shown)
VH: B26 VH
VL: B26 VL with I29T, Y36L, G56S, N92G
- IC50 [3]: 1.7 nM

B28: B7-H4 antibody 0567 (antibody, human IgG1, kappa, V domains shown)
VH: B26 VH
VL: B26 VL with I29T, W32H, N92G
- IC50 [3]: 5.4 nM

B29: B7-H4 antibody 1116 (antibody, human IgG1, kappa, V domains shown)
VH: B26 VH with F103Y
VL: B26 VL with I29T, Y36H, G56S, N92G
notes: IgG1 mAb format
- Kd [2]: 2.05 nM
- koff [2]: 0.00126 s⁻¹
- kon [2]: 612000 M⁻¹ s⁻¹

B30: B7-H4 antibody 0565 (antibody, human IgG1, kappa, V domains shown)
VH: B26 VH with E105R
VL: B26 VL with M4L, S10T, Y36F, D70E, E81D
- IC50 [3]: 22.7 nM

B31: B7-H4 antibody 0562 (antibody, human IgG1, kappa, V domains shown)
VH: B26 VH with Y59Q
VL: B26 VL with M4L, S10T, Y36F, D70E, E81D
- IC50 [3]: 2.4 nM

B32: B7-H4 antibody 1113 (antibody, human IgG1, kappa, V domains shown)
VH: B26 VH with F103Y
VL: B26 VL with I29T, N92G
notes: IgG1 mAb format
- Kd [2]: 4.31 nM
- koff [2]: 0.00108 s⁻¹
- kon [2]: 251000 M⁻¹ s⁻¹

B33: B7-H4 antibody 0563 (antibody, human IgG1, kappa, V domains shown)
VH: B26 VH with F103Y
VL: B26 VL with M4L, S10T, Y36F, D70E, E81D
- IC50 [3]: 2 nM

B34: B7-H4 antibody 1115 (antibody, human IgG1, kappa, V domains shown)
VH: B26 VH with F103Y
VL: B26 VL with I29T, G56S, N92G
notes: IgG1 mAb format
- Kd [2]: 2.62 nM
- koff [2]: 0.00116 s⁻¹
- kon [2]: 443000 M⁻¹ s⁻¹

B35: B7-H4 antibody 0414 (antibody, human IgG1, kappa, V domains shown)
VH: B26 VH
VL: B26 VL with I29T, N92G
- IC50 [3]: 6.57 nM and 8 nM

B36: B7-H4 antibody 0571 (antibody, human IgG1, kappa, V domains shown)
VH: B26 VH
VL: B26 VL with I29T, Y36H, G56S, N92G
- IC50 [3]: 2.1 nM

B37: B7-H4 antibody 0564 (antibody, human IgG1, kappa, V domains shown)
VH: B26 VH with F103H
VL: B26 VL with M4L, S10T, Y36F, D70E, E81D
- IC50 [3]: 35.2 nM

B38: B7-H4 antibody 1117 (antibody, human IgG1, kappa, V domains shown)
VH: B26 VH with F103Y
VL: B26 VL with I29T, Y36L, G56S, N92G
notes: IgG1 mAb format
- Kd [2]: 1.54 nM
- koff [2]: 0.000949 s⁻¹
- kon [2]: 620000 M⁻¹ s⁻¹

B39: B7-H4 antibody 0570 (antibody, human IgG1, kappa, V domains shown)
VH: B26 VH
VL: B26 VL with I29T, G56S, N92G
- IC50 [3]: 3.1 nM

From patent US20220017622A1 (Pfizer, published 2022)
